From the supplement of paper PMC10567573

B1: CCNC (parent)
chain: QSSHYLQWILDKQDLLKERQKDLK

Variants of: B1
Test: protein stability index of a GFP-peptide fusion (GPS, HEK-293T) (PSI 1-6); higher = more stable
Conditions: c terminus: a fixed tail appended
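Note: lentivirally expressed fusions sorted by FACS into six bins by GFP to DsRed ratio, PSI derived from sequencing read proportions per bin multiplied by bin number.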

Protein stability index of substitutions, site by site:
L23: P 2.59; A 3.41; W 2.98; I 3.39; K 3.6; T 3.27; E 3.81; D 4.22; C 3.31; Q 3.83; S 3.54; R 3.52; F 2.82; N 3.18; M 3.31; G 4.43; V 2.48
E18: H 2.54; P 2.56; Q 2.29; L 2.33; T 2.7; K 2.89; G 2.53; Y 2.2; I 2.84; F 2.15; S 2.54; M 2.02; C 2.28; N 2.53; R 2.63; W 1.8; V 2.82; D 3.08; A 3.67
K24: C 2.29; V 2.92; P 2.4; M 2.57; L 3.19; I 2.21; D 4.08; Y 2.17; T 2.96; G 3.1; H 3.29; Q 2.77; W 1.78; E 3.78; R 2.57; N 3.46; A 2.66; F 2.69; S 2.81
L15: H 3.72; P 3.93; S 3.44; R 2.78; C 3.21; N 3.33; W 3.37; K 3.66; Y 2.8; Q 3.94; E 4.08; D 3.47; T 3.72; G 3.44; A 4.19; F 2.54; V 3.11; I 3.11
L16: C 3.52; H 4; S 4.05; Q 4.15; M 2.52; N 4; F 3.23; A 3.74; E 4; Y 2.57; I 3.64; G 3.43; D 3.58; W 2.92; R 3.78; P 4.26; T 3.73; V 4.04; K 3.54
R19: L 2.06; W 2.64; K 3.27; Q 3.5; M 2.12; E 3.81; D 3.93; G 3.25; A 2.75; I 2.29; P 3.56; Y 2.72; C 2.42; H 3.03; T 3.14; N 3.72; F 2.14; V 2.19; S 2.94
K21: E 2.99; S 2.84; F 1.69; N 2.57; R 4.05; D 2.83; H 2.45; Q 3.02; A 2.78; G 2.87; P 3.42; L 2.43; T 3.28; C 2.42; Y 2.69; W 2.3; M 2.9; I 3.01
K17: G 2.96; C 2.71; Y 2.09; M 3.14; F 2.62; V 2.82; A 3.21; P 3.38; T 3.34; W 1.97; R 2.33; E 3.35; H 2.93; D 2.94; L 2.68; Q 4.4; N 3.53; S 3.66; I 2.09
Q20: P 2.76; F 2.67; R 3.5; D 3.01; H 3.16; M 1.99; V 2.69; C 2.46; I 1.66; L 2.17; K 3.07; G 2.98; A 3.12; N 3.21; Y 2.38; T 3.2; S 3.38; E 2.96; W 1.44
